Read-outs that look alike come from different tables or passages of the source.

In assay [1] the target is dEV8 (peptide name as printed; residues not given) peptide on H-2Kb (mouse).
For assay [2] the target is unchanged. The source holds these as a separate data set.
In assay [3] the target is Tax (peptide residues not given) peptide on HLA-A2 (human).
For assay [4] the target is unchanged. This is another data set of the same source.
The target of assay [5] is hen egg conalbumin (CA) peptide on I-Ak (mouse). The assay is described as follows: single-chain.
In assay [6] the target is vesicular stomatitis virus nuclear protein (VSV8) peptide on H-2Kb (mouse).
Assay [7] has the same target. The assay is described as follows: full-length, on cells.
For assay [8] the target is unchanged. This is another data set of the same source.
The target in assay [9] is VSV8/K^b (as in the statement of the monomeric affinity; construct not described) (vesicular stomatitis virus; mouse) (UniProt P01901). As to the kind of experiment: method not stated; BIAcore implied by the sentence. (SPR reads the build-up and loss of mass on a sensor chip optically.)
Chain of UniProt P01901 (P01901 22-305): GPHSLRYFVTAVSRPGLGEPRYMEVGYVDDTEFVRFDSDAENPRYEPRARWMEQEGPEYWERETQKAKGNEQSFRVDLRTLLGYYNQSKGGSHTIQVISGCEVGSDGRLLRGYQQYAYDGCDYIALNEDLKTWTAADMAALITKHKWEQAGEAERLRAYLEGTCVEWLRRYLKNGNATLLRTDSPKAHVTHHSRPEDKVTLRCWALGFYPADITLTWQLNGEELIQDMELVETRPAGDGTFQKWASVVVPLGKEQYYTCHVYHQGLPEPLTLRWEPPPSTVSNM
The target of assay [10] is VSV8 octapeptide (RGYVYQGL) bound to K^b on presenting cells (vesicular stomatitis virus; mouse) (UniProt P01887). As to the kind of experiment: cell-based or functional assay.
For assay [11], the system named is DP thymocytes of N15 tg Rag-2−/− H-2b mice. As to conditions: mouse, in vivo.
The target of the next assay is N15 TCR. Type of assay: binding, mouse. As to conditions: read-out: monomeric affinity of the N15 TCR for peptide/K^b.
Assay [12] relates to N15 TCRs on immature thymocytes. It is filed as cell-based, mouse.
Assay [13] deals with CA/I-A^k: hen egg conalbumin peptide (residues 134-146) fused by a flexible linker to the N-terminus of the I-A^k β chain, with the I-A^k α chain; leucine zippers cleaved off by thrombin (hen; mouse) (UniProt P02789). The assay is described as follows: method not stated; cited as refs. 5, 26 ('Our unpublished results').

Substance 2C TCR returned an orientation angle of the TCR on the pMHC in assay [1] of 45 °. In addition, the Kd in assay [2] turned out to be 100 µM. In the case of A6 TCR, the orientation angle of the TCR on the pMHC in assay [3] came out at 56 °.

B7 TCR: in [4], the orientation angle of the TCR on the pMHC is 70 °. On to D10 TCR, for which the orientation angle of the TCR on the pMHC in assay [5] worked out at 80 °. Regarding N15 TCR, the Kd in assay [6] was > 200 µM. In assay [7], this substance registered a % CD8 SP thymocytes after 7 days of FTOC of 1% and a % DP thymocytes 24 h after injection of 14%. Further, the orientation angle of the TCR on the pMHC in assay [8] was 54 °. Take “N15 TCR (as in the statement of its monomeric affinity; construct not described)”: in assay [9], the Kd is > 200 µM. For the substance “N15 TCR (on thymocytes and splenic T cells of N15 TCR transgenic mice)”, the DP thymocyte dulling assay: fraction of DP thymocytes dulled in [10] was found to be 5%.

Take RGYVYQGL [VSV8]: the “surviving thymocytes that were DP” value in [11] was < 10%. Moreover, the “% of DP thymocytes” value in [11] (iv) is recorded as 14%. The Kd on N15 TCR is > 200 µM. Besides, in [12], the “fraction of DP thymocytes dulled” value is reported as ~5% and the “thymocytes falling in the expected CD4/CD8 expression range of DP thymocytes” value was 10-26%. Substance “scD10 TCR (single chain V module of the D10 TCR: Vβ8.2-linker-Vα2, 237 residues, Cys235Ser)” yielded a Kd in assay [13] of 1 to 2 µM.

For the origin of these results see patent publication US20030082156A1 (priority 1999, published 2003).
